# Reference: PMC4877382
# Tests used:
# H-NS (Escherichia coli) = assay: EMSA; conditions: EMSA: 10 mM Tris-HCl pH 8, 10 mM MgCl2, 100 mM NaCl, 10 mM KCl, 1 mM spermidine, 0.5 mM DTT, 5% glycerol, 0.08 mg/ml BSA, 50 ng poly dI-dC, 25 C, 15 min …
# FIS (Escherichia coli) = assay: EMSA; conditions: EMSA: 10 mM Tris-HCl pH 8, 10 mM MgCl2, 100 mM NaCl, 10 mM KCl, 1 mM spermidine, 0.5 mM DTT, 5% glycerol, 0.08 mg/ml BSA, 50 ng poly dI-dC, 25 C, 15 min …
substance,measurement,setting,value
cspA promoter 310 bp fragment,binding signal,H-NS (Escherichia coli),520 nM
same,binding signal,FIS (Escherichia coli),7 nM
